B1: C-A11 (antibody, V domains shown)
VH: QSLEESGGRLVTPGTPLTLTCTVSGFSLSTYAMSWVRQAPGKGLEWIGVIASNADTYYASWAKGRITISKTSTTVDLKITSPTTEDTATYFCARHPGSAGYGYAVYYAMDPWGPGTLVTVSS
VL: AIEMTQSPSSLAASVGDTVTITCKASEDIRYGLNWYQQKLGIAPKLLIYGANTLEAGVPSRFSGSGSETDYTLTISSVQAEDAGIYYCQQGYSTPLTFGAGTKVEIK
B2: hN2F (antibody, V domains shown)
VH: EVQLVESGGGLVQPGGSLRLSCTVSGFSLSTYAMSWVRQAPGKGLEWIGVIASNADTYYASWAKGRFTISRDNSKNTLYLQMNSLRAEDTAVYYCARHPGSAGYGYAVYYAMDPWGQGTLVTVSS
VL: DIQMTQSPSSLSASVGDRVTITCKASEDIRYGLNWYQQKPGKAPKLLIYGANTLEAGVPSRFSGSGSGTDFTLTISSLQPEDFATYYCQQGYSTPLTFGGGTKVEIK
B3: LxC1-G10 (antibody, V domains shown)
VH: EVQLVESGGGLVQPGGSLRLSCTVSGFSLSTYAMSWVRQAPGKGLEWIGVIASNADTYYASWAKGRFTISRDNSKNTLYLQMNSLRAEDTAVYYCARHPGSAGYGYAVYYAMDPWGQGTLVTVSS
VL: DIQMTQSPSSLSASVGDRVTITCQASERVFYGIDWYQQKPGKAPKLLIYGASALWHGVPSRFSGSGSGTDYTLTISSLQPEDFATYYCQQGYMVPIGFGGGTKVEIK
B4: hN2Y (antibody, V domains shown)
VH: EVQLVESGGGLVQPGGSLRLSCTVSGFSLSTYAMSWVRQAPGKGLEWIGVIASNADTYYASWAKGRFTISRDNSKNTLYLQMNSLRAEDTAVYYCARHPGSAGYGYAVYYAMDPWGQGTLVTVSS
VL: DIQMTQSPSSLSASVGDRVTITCKASEDIRYGLNWYQQKPGKAPKLLIYGANTLEAGVPSRFSGSGSGTDYTLTISSLQPEDFATYYCQQGYSTPLTFGGGTKVEIK
B5: rabbit monoclonal antibody C-A11 (antibody, V domains shown)
VH: QSLEESGGRLVTPGTPLTLTCTVSGFSLSTYAMSWVRQAPGKGLEWIGVIASNADTYYASWAKGRITISKTSTTVDLKITSPTTEDTATYFCARHPGSAGYGYAVYYAMDPWGPGTLVTVSS
VL: AIEMTQSPSSLAASVGDTVTITCKASEDIRYGLNWYQQKLGIAPKLLIYGANTLEAGVPSRFSGSGSETDYTLTISSVQAEDAGIYYCQQGYSTPLTFGAGTKVEIK
B6: humanized antibody hN2F (antibody, V domains shown)
VH: EVQLVESGGGLVQPGGSLRLSCTVSGFSLSTYAMSWVRQAPGKGLEWIGVIASNADTYYASWAKGRFTISRDNSKNTLYLQMNSLRAEDTAVYYCARHPGSAGYGYAVYYAMDPWGQGTLVTVSS
VL: DIQMTQSPSSLSASVGDRVTITCKASEDIRYGLNWYQQKPGKAPKLLIYGANTLEAGVPSRFSGSGSGTDFTLTISSLQPEDFATYYCQQGYSTPLTFGGGTKVEIK
B7: humanized antibody hN2Y (antibody, V domains shown)
VH: EVQLVESGGGLVQPGGSLRLSCTVSGFSLSTYAMSWVRQAPGKGLEWIGVIASNADTYYASWAKGRFTISRDNSKNTLYLQMNSLRAEDTAVYYCARHPGSAGYGYAVYYAMDPWGQGTLVTVSS
VL: DIQMTQSPSSLSASVGDRVTITCKASEDIRYGLNWYQQKPGKAPKLLIYGANTLEAGVPSRFSGSGSGTDYTLTISSLQPEDFATYYCQQGYSTPLTFGGGTKVEIK

The first test deals with Epsilon (B.1.427).
On to B1, for which the IC50 amounted to 0.014 µg/mL.
Still for that read-out and setting: the result for B2 reads 0.0178 µg/mL.
B3: the half-inhibitory concentration (IC50) was found to be 0.0169 µg/mL.
Still for that read-out and setting: the result for B4 reads 0.018 µg/mL.

A further test addresses SARS-CoV-2 spike protein trimer, wild type (SARS-CoV-2, UniProt P0DTC2 16-1213).
The molecule B5 came in with a concentration for half-maximal inhibition (IC50) of 0.027 µg/mL.
The same measure, in the same setting: as for B6, the figure is 0.0246 µg/mL; as for B7, 0.0382 µg/mL.

What is called IC50 is the concentration that gives 50% inhibition.

Values taken from US20240352445A1 (published 2024).
